Results as given in patent publication US7935785B2, “Selective substrates for matrix metalloproteinases” (Sanford-Burnham Medical Research Institute, priority 2001, dated 2011).

Legend:
[1] = target: T1, MMP-9 (Homo sapiens, UniProt P14780); experiment: Cleavage of recombinant Eph receptor-Fc fusion proteins, SDS-PAGE; format: biochemical; settings: 1.8 μM fusion protein, 280 nM MMP-9, 4 hours, 37° C.
T1 construct: a recombinant form of the catalytic domain of MMP-9 expressed in HEK 293 cells; made in house; host or cells: HEK 293 cells
Description: (§1) Recombinant fusion proteins between EphB1, EphB2 and the Fc domain of IgG were purchased from R&D Systems Inc. In these constructs, the extracellular domain of rat EphB1 (amino acid residues 1-538) and mouse EphB2 (amino acid residues 1-548) are fused to the Fc region of human IgG via a short polypeptide linker. The fusion proteins (1.8 μM) were incubated for 4 hours at 37° C. with 280 nM of either MMP-2 or MMP-9. Following incubation, samples were resolved by 10% SDS-PAGE, and samples were visualized by Coomassie staining. The N-terminus of the cleaved Eph B1 was determined by automated Edman degradation of protein blotted to PVDF membranes.
(§2) The Eph B1 and Eph B2 fusion proteins were incubated with equimolar amounts (280 nM) of MMP-2 and MMP-9 for four hours. The extent of hydrolysis was gauged by SDS-PAGE (FIG. 3). […] The extent of cleavage by MMP-9 was far lower (lane 3). […] The site of hydrolysis within Eph B1 was determined by sequencing the N-terminus of one of the released fragments. […] This is one of the predicted cleavage sites in EphB1. These findings illustrate that motifs found to be selective for MMP-2 by substrate phage display, can act as selective substrates within the context of whole proteins. This experiment also illustrates that the three dimensional conformation of the putative cleavage site will also control the extent of hydrolysis.

[2] = target: T2, MMP-2 (Homo sapiens, UniProt P08253); experiment: as above; format: biochemical; settings: 1.8 μM fusion protein, 280 nM MMP-2, 4 hours, 37° C.
T2 construct: the cDNA encoding the catalytic domain of MMP-2 was generated by PCR; made in house; host or cells: HEK 293 cells
Description: as §1, §2

T1 sequence (P14780 94-444 limits assumed): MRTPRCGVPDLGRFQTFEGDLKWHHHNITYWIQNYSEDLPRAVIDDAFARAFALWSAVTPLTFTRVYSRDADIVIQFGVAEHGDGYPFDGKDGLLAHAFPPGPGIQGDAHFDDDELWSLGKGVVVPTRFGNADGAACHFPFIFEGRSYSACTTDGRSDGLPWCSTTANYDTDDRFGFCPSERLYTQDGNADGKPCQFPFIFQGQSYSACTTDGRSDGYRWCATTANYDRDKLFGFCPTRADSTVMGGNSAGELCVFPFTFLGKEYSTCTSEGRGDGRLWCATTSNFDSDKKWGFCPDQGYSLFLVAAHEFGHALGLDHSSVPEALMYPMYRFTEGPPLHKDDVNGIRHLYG
T2 sequence (P08253 110-465 limits assumed): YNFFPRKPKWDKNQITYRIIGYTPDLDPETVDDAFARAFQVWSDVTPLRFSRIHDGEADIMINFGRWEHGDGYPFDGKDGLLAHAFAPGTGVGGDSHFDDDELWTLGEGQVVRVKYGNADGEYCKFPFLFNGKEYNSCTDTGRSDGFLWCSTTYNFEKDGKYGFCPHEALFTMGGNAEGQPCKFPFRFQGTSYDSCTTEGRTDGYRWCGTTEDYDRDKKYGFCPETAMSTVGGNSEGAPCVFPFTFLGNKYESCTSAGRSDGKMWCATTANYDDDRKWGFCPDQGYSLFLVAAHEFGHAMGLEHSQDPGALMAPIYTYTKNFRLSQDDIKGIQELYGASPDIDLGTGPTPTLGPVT

extent of hydrolysis by MMP-9 (SDS-PAGE) [1]: Neither protease cleaved | extent of hydrolysis by MMP-2 (SDS-PAGE) [2]: Neither protease cleaved
B1: Eph B2 fusion protein: extracellular domain of mouse EphB2 (residues 1-548) fused to Fc region of human IgG, R&D Systems (protein)
chain: VEETLMDSTTATAELGWMVHPPSGWEEVSGYDENMNTIRTYQVCNVFESSQNNWLRTKFIRRRGAHRIHVEMKFSVRDCSSIPSVPGSCKETFNLYYYEADFDLATKTFPNWMENPWVKVDTIAADESFSQVDLGGRVMKINTEVRSFGPVSRNGFYLAFQDYGGCMSLIAVRVFYRKCPRIIQNGAIFQETLSGAESTSLVAARGSCIANAEEVDVPIKLYCNGDGEWLVPIGRCMCKAGFEAVENGTVCRGCPSGTFKANQGDEACTHCPINSRTTSEGATNCVCRNGYYRADLDPLDMPCTTIPSAPQAVISSVNETSLMLEWTPPRDSGGREDLVYNIICKSCGSGRGACTRCGDNVQYAPRQLGLTEPRIYISDLLAHTQYTFEIQAVNGVTDQSPFSPQFASVNITTNQAAPSAVSIMHQVSRTVDSITLSWSQPDQPNGVILDYELQYYEKELSEYNATAIKSPTNTVTVQGLKAGAIYVFQVRARTVAGYGRYSGKMYFQTMTEAEYQTSIKEKLPLIVGSS
modifications: left off: small tags and cut ends; a dimerising Fc or GST
notes: extracellular domain of mouse EphB2 (residues 1-548) fused to Fc region of human IgG, R&D Systems
